Measured values: patent US20230399394A1 (SUNSHINE GUOJIAN PHARMACEUTICAL SHANGHAI, published 2023)
Each block holds one binder with its values, some of them ahead of it.

Columns and labels:
[1] = target: T1, IL-33 mutant protein S63A (human, UniProt O95760 112-270); experiment: ELISA as Example 9; row S63A
T1 construct: Prokaryotic expression
T1 chain: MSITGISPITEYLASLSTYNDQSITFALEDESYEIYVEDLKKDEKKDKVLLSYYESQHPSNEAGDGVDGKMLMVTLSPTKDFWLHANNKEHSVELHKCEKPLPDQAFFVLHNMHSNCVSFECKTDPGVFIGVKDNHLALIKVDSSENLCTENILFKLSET
Method: SA protein was diluted to 2 μg/mL to coat ELISA plate at 100 μL/well overnight at 4° C. The plate was washed with PBST (PBS containing 0.05% Tween20) for 3 times, and blocked with 2% BSA prepared in PBS at 200 μL/well, at room temperature for 2 h. After the plate was washed twice with PBST, IL-33-his-biotin protein was diluted to 1 μg/mL with 1% BSA prepared in PBST, and was added to ELISA plate at 100 μL/well. The plate was incubated at room temperature for 1 h, and each monoclonal antibody was diluted with 1% BSA prepared in PBST in a 3-fold gradient. The highest concentration of antibody was 10 μg/mL, and the antibody was diluted for 12 gradients. Each diluted monoclonal antibody was added to ELISA wells with 100 μL/well, and the plate was incubated at room temperature for 1 h. Each sample was added to duplicate wells in parallel. The plate was washed with PBST for 3 times, and HRP-anti human IgG Fc secondary antibody prepared with PBST was diluted at an appropriate ratio, and was added to ELISA wells at 100 μL/well. […] Each reaction solution was shaken uniformly and OD450 nm was read on a microplate reader. The data was analyzed and EC₅₀ was calculated.
Subsequently, according to the experimental method of Example 9, the affinity of the above mutant proteins to 874F7-Hu1 was determined, and IL-33 proteins (WT-1, WT-2, WT-3, and WT-4) without any mutation were set as controls.

Pep1 = target: T2, Pep1 (human, N-terminal biotin); experiment: ELISA, biotinylated peptide on streptavidin plate, antibody 10 µg/mL, well 1
T2 construct: Synthetic 20-mer of human IL-33
T2 peptide: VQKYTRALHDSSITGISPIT
Method: (§1) To determine the binding activity of antibody to each polypeptide fragment, the ELISA plate was pre-coated by biotin-avidin (SA) which was diluted in coating solution (50 mM carbonate coating buffer, pH 9.6) to 2 μg/ml at 4° C. overnight. The plate was washed with PBST for 3 times, and then blocked with 2% BSA prepared in PBS at room temperature for 2 h with 200 μL/well. The plate was washed once with PBST, and 864F3 and 874F7 with final concentrations of 10 μg/mL were added at 100 μL/well, respectively, and the plate was incubated at room temperature for 1 h. The plate was washed with PBST for 3 times, and the goat anti-mouse IgG labeled by HRP was added and placed at 37° C. for 30 min. After washing the plate with PBST for 3 times, the plate was patted on the absorbent paper to remove residual droplets as far as possible. 100 μl TMB developing solution was added to each well, and the plate was placed at room temperature (20±5° C.) for 5 minutes away from light; 50 μl 2M H₂SO₄ terminating solution was added to each well to terminate the substrate reaction. OD values were read at 450 nm on the microplate reader to analyze the binding ability of the antibody to each polypeptide fragment. The experimental results are shown in […]

Pep14 = target: T3, Pep14 (human, N-terminal biotin); experiment: as above
T3 construct: Synthetic 20-mer of human IL-33
T3 peptide: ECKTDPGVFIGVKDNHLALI
Method: as §1

Pep10 = target: T4, Pep10 (human, N-terminal biotin); experiment: as above
T4 construct: Synthetic 20-mer of human IL-33
T4 peptide: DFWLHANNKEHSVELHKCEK
Method: as §1

Pep7 = target: T5, Pep7 (human, N-terminal biotin); experiment: as above
T5 construct: Synthetic 20-mer of human IL-33
T5 peptide: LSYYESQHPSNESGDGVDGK
Method: as §1

Pep9 = target: T6, Pep9 (human, N-terminal biotin); experiment: as above
T6 construct: Synthetic 20-mer of human IL-33
T6 peptide: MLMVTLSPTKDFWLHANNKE
Method: as §1

Pep5 = target: T7, Pep5 (human, N-terminal biotin); experiment: as above
T7 construct: Synthetic 20-mer of human IL-33
T7 peptide: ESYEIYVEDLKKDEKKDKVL
Method: as §1

Pep13 = target: T8, Pep13 (human, N-terminal biotin); experiment: as above
T8 construct: Synthetic 20-mer of human IL-33
T8 peptide: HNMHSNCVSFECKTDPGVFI
Method: as §1

EC50 [1]: 160 pM
B1: 874F7-Hu1 (antibody, human IgG4 S228P, kappa)
heavy: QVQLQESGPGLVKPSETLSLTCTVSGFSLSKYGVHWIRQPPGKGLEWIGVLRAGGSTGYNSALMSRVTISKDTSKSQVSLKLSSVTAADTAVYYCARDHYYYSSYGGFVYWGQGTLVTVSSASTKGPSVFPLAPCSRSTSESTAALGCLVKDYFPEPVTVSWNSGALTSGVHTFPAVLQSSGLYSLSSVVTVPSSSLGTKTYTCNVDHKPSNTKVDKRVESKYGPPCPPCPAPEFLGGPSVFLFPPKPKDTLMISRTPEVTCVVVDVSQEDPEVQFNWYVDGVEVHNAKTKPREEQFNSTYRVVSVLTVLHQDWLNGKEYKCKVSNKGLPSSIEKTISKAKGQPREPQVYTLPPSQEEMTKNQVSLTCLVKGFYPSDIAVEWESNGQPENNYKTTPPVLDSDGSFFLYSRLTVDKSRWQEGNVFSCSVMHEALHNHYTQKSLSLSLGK
light: DIQMTQSPSSVSASVGDRVTITCLASQTIGAWLAWYQQKPGKSPKLLIYAATRLADGVPSRFSGSGSGTDFTLTISSLQPEDFATYYCQQLDSSPYTFGQGTKVEIKRTVAAPSVFIFPPSDEQLKSGTASVVCLLNNFYPREAKVQWKVDNALQSGNSQESVTEQDSKDSTYSLSSTLTLSKADYEKHKVYACEVTHQGLSSPVTKSFNRGEC
notes: also called 874F7-Hul; humanized antibody 874F7-Hu1

OD450 (Pep1): 0.074 OD450
OD450 (Pep14): 0.059 OD450
OD450 (Pep10): 0.053 OD450
OD450 (Pep7): 0.055 OD450
OD450 (Pep9): 0.065 OD450
OD450 (Pep5): 0.05 OD450
OD450 (Pep13): 0.054 OD450
B2: 874F7 (antibody, V domains shown)
VH: QVQLKESGPGLVAPSHSLSITCNVSGFSLSKYGVHWIRQIPGRGLDWLGVLRAGGSTGYNSALMSRLSISKDSSKSQVFLKMNDLRTDDTAVYFCVRDHYYYSSYGGFVYWGQGTLVTVSA
VL: DIQMTQSPASQSASLGESVTITCLASQTIGAWLAWYRQQPGKSPQLLIYAATRLADGVPSRFSGSGSGTEFSFKINNLQAEDFVSYYCQQLDSSPYTFGGGTRLEM
notes: Murine hybridoma antibody purified on Protein G; also called murine antibody 874F7
